B1: Eterna 15995 (Sensor v3, turn-off variant 1) (ssRNA)
RNA: UAUUAGCAAGCAAGGUCCCACAUGAGGAUCACCCAUGUGCUCGUCUUAUAAGGUACUGUGACGAAAGUCACGGUACC
B2: Eterna 10232 (Sensor for hsa-mir-208a) (ssRNA)
RNA: AACCAACAAAUAAAACAAGCGUGCUCGUCACAUGAGGAUCACCCAUGUUUAAGCGCUAUUCCUACUUCCUCAGCGCC
B3: Eterna 10111 (Sensor for hsa-mir-208a version 2) (ssRNA)
RNA: AAUUAUUAACAUGAGGAUCACCCAUGUAAAACAUGGAUUAACAAGCCUUUUCGUUUUUGCUCGUCUUAUAUUAUUAA
B4: Eterna 5997882 (Exclusion 5) (ssRNA)
RNA: CAGCCCUGAGGAUAUCCCUACUUGUACAUGAGGAUCACCCAUGUCCUCCUCCGGGCUUCGGGAGAAGGCAGGUCUC
B5: Eterna 6444365 (Inverted Same State NG 3) (ssRNA)
RNA: AGAUUUGUACAUGAGGAUCACCCAUGUUAAUAGGUGGUUGUCAGAAGGCAUUAUUAGAGUUUUAAUGAGGAUAUGAAUUUACAA
B6: Eterna 5 (OligoOldBControl) (ssRNA)
RNA: UUUAAUGAGGGAACUGCUUAGUUU
B7: Eterna 7678744 (Same State - Tryptophan A) (ssRNA)
RNA: ACAGGAUCGAAAGAUCCUGAGCAGUCAAAACGAGGACCGGUACGGCCGCCACUCGAAUAAGAGAGUGAUGUUCUCGACUGCAAAA
B8: Eterna 6395988 (Inverted Same State NG 2) (ssRNA)
RNA: GUCUGAUUGUAGAAGGUACUUAAUACUCAUGUAACAUGAGGAUCACCCAUGUAUCAACAAUAUUGUAAGGAUAUACAAAUCUCA
B9: Eterna 7740407 (Exclusion - Tryptophan A) (ssRNA)
RNA: AAGCAGUCACUCGAAACCAUCGAAGAUGGACGAGGACCGGUACGGCCGCCACUCGGAGUGAUGUUCCGAAGACUGCAAAAUAAAA
B10: Eterna 1200 (Exclusion - Tryptophan A) (ssRNA)
RNA: UGGAGUGCCUGGUCGUCACUAUGCCAACCACGAGGACCGGUACGGCCGCCACUCGUGAGGGAUAUUCAGAAAGUGAUGUUUUUUG
B11: Eterna 11 (K4-alt7bp_control) (ssRNA)
RNA: UUUGUUGCCAGUGAUGUUGGCAACUUU
B12: Eterna 5956610 (Same State NG 2) (ssRNA)
RNA: UGGCUGAGUCGAGGAUAUGAUCUUCAUAUAAUAACAUGAGGAUCACCCAUGUAUAAUUACAUGGAUCAGAAGGCGACUCAGCCA
B13: Eterna 5921244 (Exclusion NG 2) (ssRNA)
RNA: AUUAUAUAGGAAGGAUAUAGAAUAUUAUUUUAACAUGAGGAUCACCCAUGUAACCUUAUGUGUAGCUAGAAGGUCCAUUUGUUA
B14: Eterna 7755473 (Exclusion - Arginine A) (ssRNA)
RNA: UCCUUUGUUGCCAGUGAUGUUGGACAGGAAGGAGCGGGCAUAAGCCCAGGUAGGUCGCCUGUCAACUUUCUUAUAGCCCGAAGGU
B15: Eterna 6120996 (Same State NG 1) (ssRNA)
RNA: GGUCCAGCAUGAGGAUAUGGCACCUUAUUGGUGCCAGAAGGCAUGUCUAUAGACAUGAGGAUCACCCAUGUAAUAAAUUGGACC
B16: Eterna 7745661 (Exclusion - FMN B) (ssRNA)
RNA: AGACUACUGAUAGGAUAUAACAUCCUAGUCGUAUACCGAAAGGUAUACGAUUCCCUUCUAGUGAUGUUAGAAGGGUCGGUAGUCA
B17: Eterna 7690517 (Same State - Theophylline B) (ssRNA)
RNA: AAUUUAUUAUCUGAUACCAGACUUUUUCUUGUUUAUAAGUCAAGUGAUGUUUGACUUUUAGUCCCUUGGCAGCAGUAUUUUUUAA
B18: Eterna 7629678 (Same State - Theophylline A) (ssRNA)
RNA: UUCUACAUGAGGAUCACCCAUGUAAACGAUACCAGACGAGUAUUAGUCCCUUGGCAGCGUAGAGUGUCGUUUAUAGUAGGAUACC
B19: Eterna 7639661 (Exclusion - Theophylline B) (ssRNA)
RNA: AUUUAUAGUUGUGAUACCAGACUUACAUGAGGAUCACCCAUGUUACUUAAAUGUUUUGAUGUCCCUUGGCAGCACUGUUUUUUUA
B20: Eterna 7636321 (Exclusion - Theophylline B) (ssRNA)
RNA: CAUUAUGUAACUGAUACCAGUGUACUGACAUGAGGAUCACCCAUGUUGGGUUUUGUUGUACACCCUUGGCAGCAGAAUCAUAAUG
B21: Eterna 7687214 (Same State - Theophylline B) (ssRNA)
RNA: UCGUGUAUAUCGGAUACCAGUGAAAACGAUACAUGAGGAUCACCCAUGUGAGUUGAUGUACACCCUUGGCAGCUGUAUAUAUCUA
B22: Eterna 7618834 (Exclusion - Theophylline A) (ssRNA)
RNA: AGACAUGAGGAUCACCCAUGUAGUAUGGAUACCAGAUCCAGAUUUAUCCCUUGGCAGCUGUGGUACAGCGUUGGAUCGCUCCUAG
B23: Eterna 7733059 (Exclusion - Tryptophan B) (ssRNA)
RNA: GGAGUCGGCACGGCCGCCACUGCGGUGGUGUGACAUGAGGAUCACCCAUGUUGUCAUGCGGCCCUUAGGACCGGGUGGCGGUUCC

These binders were tested against T1, MS2 coat protein, dlFG mutant (Escherichia phage MS2, UniProt P03612, del68-81insG) (assay: 4 mM Mg2+; miR-208a RNA 100 nM (AU…UUGU); RNA-MaP array; 100 mM Tris-HCl pH 7.5, 80 mM KCl, 4 mM MgCl2, 0.1 mg/mL BSA, 1 mM DTT, 0.01 mg/mL yeast tRNA, 0.01% Tween-20; protein 1.5 nM to 3 uM; 37 C (Table S3)). Conditions: chain copies: 2; label: tethered by stalled RNA polymerase.
B1 was tested, and the Kd was 0.426 µM. In the case of B2, the Kd is reported as 0.0304 µM. Work on B3 yielded a Kd of 0.135 µM.

Each binder was assayed against T1, MS2 coat protein, dlFG mutant (assay: 4 mM Mg2+; FMN 200 uM; RNA-MaP array; 100 mM Tris-HCl pH 7.5, 80 mM KCl, 4 mM MgCl2, 0.1 mg/mL BSA, 1 mM DTT, 0.01 mg/mL yeast tRNA, 0.01% Tween-20; protein 1.5 nM to 3 uM; 37 C (Table S3)). Conditions: chain copies: 2; label: tethered by stalled RNA polymerase.
For B4, the Kd was 0.0185 µM.

The binders below were run against T1, MS2 coat protein, dlFG mutant (assay: 4 mM Mg2+; no ligand; RNA-MaP array; 100 mM Tris-HCl pH 7.5, 80 mM KCl, 4 mM MgCl2, 0.1 mg/mL BSA, 1 mM DTT, 0.01 mg/mL yeast tRNA, 0.01% Tween-20; protein 1.5 nM to 3 uM; 37 C (Table S3)). Conditions: chain copies: 2; label: tethered by stalled RNA polymerase.
Binder B5 has a Kd of 0.975 µM. Binder B6 has a Kd of over 3 µM. Binder B7 has a Kd of over 3 µM. Binder B8 has a Kd of 0.577 µM. For B9, the Kd was over 3 µM. B10 gave a Kd of over 3 µM. B11 showed a Kd of over 3 µM. B12 gave a Kd of 0.662 µM. Binder B13 has a Kd of 0.224 µM. B14 gave a Kd of over 3 µM. B15 gave a Kd of 0.646 µM. B16 gave a Kd of over 3 µM. B17 gave a Kd of over 3 µM.

These binders were tested against T1, MS2 coat protein, dlFG mutant (assay: 4 mM Mg2+; theophylline 2 mM; RNA-MaP array; 100 mM Tris-HCl pH 7.5, 80 mM KCl, 4 mM MgCl2, 0.1 mg/mL BSA, 1 mM DTT, 0.01 mg/mL yeast tRNA, 0.01% Tween-20; protein 1.5 nM to 3 uM; 37 C (Table S3)). Conditions: chain copies: 2; label: tethered by stalled RNA polymerase.
B18 gave a Kd of 0.0284 µM. Binder B19 has a Kd of 0.014 µM. In the case of B20, the Kd is reported as 0.0909 µM. Work on B21 yielded a Kd of 0.0151 µM. Binder B22 has a Kd of 0.0294 µM.

What follows are binders tested against T1, MS2 coat protein, dlFG mutant (assay: 4 mM Mg2+; L-tryptophan 2.4 mM; RNA-MaP array; 100 mM Tris-HCl pH 7.5, 80 mM KCl, 4 mM MgCl2, 0.1 mg/mL BSA, 1 mM DTT, 0.01 mg/mL yeast tRNA, 0.01% Tween-20; protein 1.5 nM to 3 uM; 37 C (Table S3)). Conditions: chain copies: 2; label: tethered by stalled RNA polymerase.
For B23, the Kd was 0.057 µM.

From paper PMC9170038, “Crowdsourced RNA design discovers diverse, reversible, efficient, self-contained molecular switches”
